Blank lines part the entries; values can stand above or below the binder they belong to.
Assays:
[1] = target: T1, MHC molecule coded by the HLA-A*0201 allele (recombinant HLA-A*0201 heavy chain refolded with beta-2 … (human)); assay: ELISA-based MHC refolding assay
[2] = target: T1, MHC molecule coded by the HLA-A*0201 …; assay: ELISA-based MHC refolding assay, recombinant HLA-A*0201 heavy chain + b2m + graded peptide
[3] = target: T1, MHC molecule coded by the HLA-A*0201 …; assay: tetramer production / HLA-A*0201 refolding with peptide

- binding result [1]: binds
Binder: AIIDGVESV (also called IMA-PTP-003) [PTP-003]

- Kd [2]: 0.14 nM
Binder: YVDPVITSI (also called MET-005 derived MET-001) [MET-001]

- binding result [1]: binds
Binder: NLDTLMTYV (also called IMA-NLGN4X-001) [NLGN4X-001]

- binding result [1]: binds
Binder: ALWAWPSEL (also called IMA-BCA-002) [BCA-002]

- binding result [1]: binds
Binder: LTFGDVVAV (also called IMA-FABP7-001) [FABP7-001]

- Kd [2]: 2.05 nM
Binder: TMLARLASA (also called IMA-CSP-001) [CSP-001]

Continued, binder first:

Binder: KVFAGIPTV (also called IMA-PTP-005) [PTP-005]
- binding result [1]: binds

Binder: SLWAGVVVL (also called IMA-CHI-001) [CHI-001]
- binding result [1]: binds

B1: MET-005 (peptide)
peptide: TFSYVDPVITSISPKYG
notes: also called IMA-MET-005; full-length MET-005
- binding result [3]: no binding

Binder: AMTQLLAGV (also called IMA-TNC-001) [TNC-001]
- binding result [1]: binds

Binder: GLWHHQTEV (also called IMA-NRCAM-001) [NRCAM-001]
- binding result [1]: binds

Binder: KIQEILTQV (also called IMA-IGF2BP3-001) [IGF2BP3-001]
- binding result [1]: binds

— patent US20110002963A1 (IMMATICS BIOTECHNOLOGIES, published 2011)
